Laboratory results as given in patent US20250186580A1 (TRIDEM BIOSCIENCE, published 2025).

Target: ActHIB, Haemophilus influenzae type b capsular polysaccharide (PRP) tetanus toxoid conjugate, withou (UniProt P04958 2-1315)
Assay: competitive ELISA, soluble murine Fc-dectin-1a on coated glucan

B1: soluble murine Fc-dectin-1a receptor (InvivoGen) (Fc fusion)
chain: EYGHNSGRNPEEKDNFLSRNKENHKPTESSLDEKVAPSKASQTTGGFSQPCLPNWIMHGKSCYLFSFSGNSWYGSKRHCSQLGAHLLKIDNSKEFEFIESQTSSHRINAFWIGLSRNQSEGPWFWEDGSAFFPNSFQVRNTAPQESLLHNCVWIHGSEVYNQICNTSSYSICEKEL
B1: no binding.
